Measured values reported in article PMC4222529 (Biochemistry, 2014).
No end group written: not given here. *: point of attachment. 5FAM = O=C1OC2(c3ccc(O)cc3Oc3cc(O)ccc32)c2ccc(C(=O)*)cc21

B1: NEMOw (domain or fragment)
chain: GSWEQGAPETLQRCLEENQELRDAIRQSNQILRERCEELLHFQASQREEKEFLMCKFQEARKLVERLGLEKL
B2: 5′FAM-IKKβ_(KK/RR) (peptide, UniProt O14920 701-745, looked up)
chain: 5FAM-PARRSEELVAEAHNLCTLLENAIQDTVREQDQSFTALDWSWLQTE
modifications: not fully specified

What was measured:
5′FAM-IKKβ_(KK/RR) [1] = target: 5′FAM-IKKβ_(KK/RR) (UniProt O14920); assay: fluorescence polarisation
NEMOwNcc = NEMOwNcc (UniProt Q9Y6K9); assay: non-reducing SDS-PAGE
NEMOwCcc = NEMOwCcc (UniProt Q9Y6K9); assay: non-reducing SDS-PAGE
non-reducing SDS-PAGE = target: the molecule itself; assay: non-reducing SDS-PAGE
NEMOw = target: B1; assay: fluorescence polarisation
GST-NEMO(1–196) [2] = target: T1, GST-NEMO(1–196) (UniProt Q9Y6K9 1-196); assay: fluorescence polarisation
GST-NEMO(1–196) [3] = target: T1, GST-NEMO(1–196); assay: fluorescence polarisation; remark: listed apart in the source
5′FAM-IKKβ_(KK/RR) [4] = target: B2; assay: fluorescence polarisation

NEMOwNcc (from UniProt Q9Y6K9 51-112) (designed binder)
Kd (5′FAM-IKKβ_(KK/RR) [1]): 980 nM | stoichiometry N (NEMOwNcc): 2

NEMOwCcc (from UniProt Q9Y6K9 44-112) (designed binder)
Kd (5′FAM-IKKβ_(KK/RR) [1]): 150 nM | stoichiometry N (NEMOwCcc): 2

B1
stoichiometry N (non-reducing SDS-PAGE): 2

B2
Kd (NEMOw): ~10000 nM | Kd (GST-NEMO(1–196) [2]): 168 ± 4 nM

PARRSEELVAEAHNLCTLLENAIQDTVREQDQSFTALDWSWLQTE (peptide, UniProt O14920 701-745, looked up) [IKKβ_(KK/RR)]
IC50 (GST-NEMO(1–196) [3]): 167 ± 3 nM

B3: NEMOwDcc (designed binder)
chain: GSWSVKELEDKNEELLSEIAHLKNEVARLKKLLQRCLEENQELRDAIRQSNQILRERCEELLHFQASQREEKEFLMCKFQEARKLVERLGLEKLELEDKNEELLSEIAHLKNEVARLKKLVGER
Kd (5′FAM-IKKβ_(KK/RR) [4]): 114 ± 3 nM
